In patent publication US20070059799A1 one finds binding affinity ratio (ratio to standard peptide) data, which are given here for two molecules.

Consider GPLTVNEKRRL (modifications not checked) [HBV POL 97 peptide …], for which the binding affinity ratio (ratio to standard peptide) in the assay with HLA-B*0702 (human) was 0.0031; with HLA-B*5301 (human), -0.0003.

As to GPLLVLQAGFF (modifications not checked) [HBV ENV 173 peptide …], the binding affinity ratio (ratio to standard peptide) with HLA-B*0702 (human) was 0.0011; with HLA-B*5401 (human), 0.0009.
